According to patent US20240245805A1 (Orna Therapeutics, Inc., priority 2020, published 2024):

B1: Enterovirus AN12 (nucleic acid, listed as Enterovirus sp.)
chain: TACCGCTGCACCAGTGAGCTGGTACGCTAGTACCTTCGCACGGAGTAGATGGCATCCCCCACCCCGTAACTTAGAAGCAAAGTACACATCTGGCCAATAGTGGCGCTGCATCCAGCCGCGCAACGGTCAAGCACTTCTGTTTCCCCGGTCCGCAAGGGTCGTTATCCGCCCAGTCCACTACGGAAAGCCTACTAACCATTGAAGCTATCGAGAGGTTGCGCTCGGCCACGACCCCGGTGGTAGCTCTGAGTGATGGGGCTCGCAAACACCCCCGTGGTAACACGGATGCTTGCCCGCGCGTGCACTCGGGTTCAGCCTATTGGTTGTTCACCTCAACATAGTGTAAATGGCCAAGAGCCTACTGTGCTGGATTGGTTTTCCTCCGGAGCCGTGAATGCTGCTAATCCCAACCTCCGAGCGTGTGCGCACAATCCAGTGTTGCTACGTCGTAACGCGTAAGTTGGAGGCGGAACAGACTACTTTCGGTACTCCGTGTTTCTTTTGTTTTATTTTGAATTTTATGGTGACAATTGCTGAGATTTGCGAATTAGCGACTCTACCGCTGAACATTGCCCTGTACTACCTAATCGCATTTCACAAAACCTCAGAGATACCAAGCTCTTACATTGATCTGCTTGTTTTCCTGAATCTCAAATATAAATTGGAACAAGCAAA
modifications: lipid formulation
B2: Poecivirus BCCH-449 (nucleic acid, listed as Poecivirus sp.)
DNA: ACTACACAATCGCAACACGCGCAAGTTTGTAGTTTGATTGGCGTGCAAATGTCAAATCAAGCATATAACACAATTTGGTGGCTGTTGGTGTTTGTTATAGGAATTTTGGTTGTGTTGAAATTGTGGATGTGTAGGAAATATGCACAATTACGTCAGCGTCAGGAGTTTTATAACCTGGCGCAACACCAAAATGGTCTTCGCGCTTTAACATCACCAGCGAGGTGTAAACAAATTGAAGTTGAATTAGATCGTGTATAGGCCAGGGAACCATCCCTCCCAACGCCACATCTTGTGGGGAAGTTGGGATAATGGTGGGTCTATATGAATTGGTCTGTAGACCCACAGTGAAGAGTGAATAGTATGCTTGCGGTTCCATTTGTTAATGGTCTAGCATGGGTGGGGGCGGCAACCCCGTGAGGGGTTCCCCACTGGCCAAAAGCCCAGGGGTTAGTCATTTCAACCAAGGAAGCTGGTAACCTGGTGACCTGAACTTGAGTGGTGAGACCCCCTTGCTAGAGTGTGTAAACCGATTGTAAGCATTTTGTTTGCTTAGTATCTGTGGTATAAGCAGTCAATTTTGTATAGGCTCAAGGCTGTGGTAGTTAGTAGATGCCCGGAAGGTTATTACTGATCCGGGGACCGTGACTATACATTAGGTAAACCGGTTTAAAAACC
modifications: lipid formulation
B3: Guereza hepacivirus (nucleic acid, listed as Hepacivirus sp.)
chain: CACTCAATACTACACTCCGCATTTGGGGAGAAGCGCTGGCGTTCGCGGAACCGCGTTAACCATACGCGTAGTACGAGTGCGACAGACCCCGGTGCTACTGGTGGTAGCGAGACACGAGCCGAAGTCTGTGGGGGGAACTCCACTTAGAGGGCATGCCCGGGCGTAGGCTTCTGAGTTGGGATGGGCCCCAACTTGGCCCCTGAGTGGGGGGGTGTTACGACCTGATAGGGTGCGGGCTGGCGCCTACCACTTTCCAGTCGTACATGAGTC
modifications: lipid formulation
B4: Grapevine associated narnavirus-1 (nucleic acid, listed as Narnavirus sp.)
chain: GCCCGGGGGGTGCAGTCCTGTGAAAGGGTCTGCACCATACTATATATGTATATGATTACATCCCAAAAGGCGACTTCGTTCAGGTTTTAAATCTGACGTAGGTCCAGTAAATAAGCATGTCAAAACATGTAAGTTTATCCTGTAATCTACTCTCATAAGATGAGATAAGATGATATTGCAGTTCCCATGTAAATAAATCCATTATGAATTCATTCATATAAGGTAGAAGTGGTAACTATGGTTGAAACATTAATATAAAACGGTCATTTTGCATGAACGTCATTAAGGAACTGGCATACCAATGTCTATTTAGTGACTATGATATTTAGAGTATCCCTTATATTAATTAACAATTATTCCTTTTAGCATATCATCCGACAACAAATTTTAAAAGAAGAAATATTACTCATTAAAA
modifications: lipid formulation
B5: Goat torovirus (nucleic acid, listed as Torovirus sp.)
chain: GTACTTACAAGCGGGTTAAACCGCCCTCCGGAACGGTTACAACCCCCTCCCGAACGTGCGCTTGACGTGACTGGTTCTCAGTCTGGCTTTCTGAGAAATACTCCAGGGTTGTATCCCACCATCTTGACCTCTGGTCATTTTGGTAACACCATAACCAAACAAACTCTACACACCTAACCCACCTCCAGCTTGCTGCAGGCCTTTTGGACTAAACGGGTTTAGGTGTTTTGTGACCAACTCGTCTACCCACCTCCAGTTTTACTGCAGGCCTTTTTGGACTAAACGGCTTTAGACTTTTGTGGTTAGTTTTTAACTACCCACTGTTTAGCCGCCAACCTGATTTTCATTGTTGTAAAATTTTGTGTTTATACACTATTTTCATACGGTTGGCAGTTTGTTTGGTTGTTTGCACAGTTTTTGTTGATACCAATTTTTACTGTGCTTTTAGTGTATTCTGCTAAGGCTGTATTTTACATACTTAGTTTGGTTGAAGCAATTTTTACAACATTTATATTGTTTTTGATTTCTAAGGTAAAGAGTCTTAGGAAACACCATAGACGCCATTCTTGTGGTGTCTAGTTCCAACTAATCTGGCAAACAAGTACCAAGTCATTGACTCACTTTGGAGTGAGACTTACGAGTACCAATTTGCCTATTTCGGACATCCATATAAAG
modifications: lipid formulation
B6: Feline infectious peritonitis virus (nucleic acid)
chain: ACTTTTAAAGTAAAGTGAGTGTAGCGTGGCTATAACTCTTCTTTTACTTTAACTAGCCTTGTGCTAGATTTGTCTTCGGACACCAACTCGAACTAAACGAAATATTTGTCTCTCTATGAAACCATAGAAGACAAGCGTTGATTATTTCACCAGTTTGGCAATCACTCCTAGGAACGGGGTTGAGAGAACGGCGCACCAGGGTTCCGTCCCTGTTTGGTAAGTCGTCTAGTATTAGCTGCGGCGGTTCCGCCCGTCGTAGTTGGGTAGACCGGGTTCCGTCCTGTGATCTCCCTCGCCGGCCGCCAGGAGA
modifications: lipid formulation; source: /note="Description of Unknown: Feline infectious peritonitis virus sequence"
B7: Farmington virus (nucleic acid)
chain: ACGACGCATAAGCAGAGAAACATAAGAGACTATGTTCATAGTCACCCTGTATTCATTATTGACTTTTATGACCTATTATTAGACCCTTCACGGGTAAATCCTTCTCCTTGCAGTTCTCGCCAAGTACCTCCAAAGTCAGAACG
modifications: lipid formulation; source: /note="Description of Unknown: Farmington virus sequence"
B8: Human rhinovirus 1 (nucleic acid, listed as Rhinovirus sp.)
DNA: TTAAAACTGGGTGTGGGTTGTTCCCACCCACACCACCCAATGGGTGTTGTACTCTGTTATTCCGGTAACTTTGTACGCCAGTTTTTCCCTCCCCTCCCCATCCTTTTACGTAACTTAGAAGTTTTAAATACAAGACCAATAGTAGGCAACTCTCCAGGTTGTCTAAGGTCAAGCACTTCTGTTTCCCCGGTTGATGTTGATATGCTCCAACAGGGCAAAAACAACAGATACCGTTATCCGCAAAGTGCCTACACAGAGCTTAGTAGGATTCTGAAAGATCTTTGGTTGGTCGTTCAGCTGCATACCCAGCAGTAGACCTTGCAGATGAGGCTGGACATTCCCCACTGGTAACAGTGGTCCAGCCTGCGTGGCTGCCTGCGCACCTCTCATGAGGTGTGAAGCCAAAGATCGGACAGGGTGTGAAGAGCCGCGTGTGCTCACTTTGAGTCCTCCGGCCCCTGAATGCGGCTAACCTTAAACCTGCAGCCATGGCTCATAAGCCAATGAGTTTATGGTCGTAACGAGTAATTGCGGGATGGGACCGACTACTTTGGGTGTCCGTGTTTCACTTTTTCCTTTATTAATTGCTTATGGTGACAATATATATATTGATATATATTGGCATC
B9: Human TMEV-like cardiovirus (nucleic acid, listed as Cardiovirus sp.)
DNA: TCCGACGTGGTTGGAATTAACATCTTTTCCGACGAAAGTGCTATTATGCCTCCCCGATTGTGTGATGCTTTCTGCCCTGCTGGGCGGAGCGTCCTCGGGTTGAGAAACCTTGAATCTTTTCCTTTGGAGCCTTGGCTCCCCCGGTCTAAGCCGCTTGGAATATGACAGGGTTATTTTCCAAACTCTTTATTTCTACTTTCATGGGTTCTATCCATGAAAAGGGTATGTGTTGCCCCTTCCTTCTTTGGAGAATCTGCGCGGCGGTCTTTCCGTCTCTCAACAGGCGTGGATGCAACATGCCGGAAACGGTGAAGAAAACAGTTTTCTGTGGAAATTTAGAGTGGACATCGAAACAGCTGTAGCGACCTCACAGTAGCAGCGGATTCCCCTCTTGGCGACAAGAGCCTCTGCGGCCAAAAGCCCCGTGGATAAGATCCACTGCTGTGAGCGGTGCAACCCCAGCACCCTGGTTCGATGGCCATTCTCTATGGAACCAGAAAATGGTTTTCTCAAGCCCTCCGGTAGAGAAGCCAAGAATGTCCTGAAGGTACCCCGCGCGCGGGATCTGATCAGGAGACCAATTGGCAGTGCTTTACGCTGCCACTTTGGTTTAAAAACTGTCACAGCTTCTCCAAACCAAGTGGTCTTGGTTTTCCAATTTTGTTGACTGACAAT
B10: Hubei zhaovirus-like virus 1 (nucleic acid)
DNA: GTGCAGGATGGCCTTTCCCATCTTAAGTGGTTTGTAGGATTTCGTGGGTCCATACCCCCCGATTTCTTGGTACGTATTCCATGCACGGAGAATACGACCAAAACTCTTATTTCAAAAAATATTATTTTTTACTCTTGTGGGCTGAGTGCGACCCACCAGTTCCAGCTTAGCAACCTGGAAGTTGTTGGAGATTTATGGAACCAAATTACACATGCGTGGAGTGCCGCCACTCCGTATCTGTTCACTCATTACGCGATTAAGTTCTGCGACGAGACGAGCGAA
modifications: source: /note="Description of Unknown: Hubei zhaovirus-like virus 1 sequence"

Test system: HEK293 cells
Format: cell-based, human
Details: circular RNA encoding Gluc with the listed IRES (UTR truncated to 675 nt) transfected into HEK293 cells; supernatant after 24 hours

Row | Molecule | Expression (luminescence from secreted Gluc protein)
1 | B1 | 3.87E+06
2 | B2 | 3.43E+05
3 | B3 | 1.38E+05
4 | B4 | 1.30E+05
5 | B5 | 1.19E+05
6 | B6 | 1.35E+05
7 | B7 | 1.22E+05
8 | B8 | 7.40E+07
9 | B9 | 4.48E+07
10 | B10 | 1.03E+05
